Tests used:
human cMet on 3T3 cells = molecular target: T1, human cMet on 3T3 cells (human, UniProt P08581 25-1390); test: phage whole cell ELISA, 3T3 human cMet vs 3T3
T1 construct: whole, on cells; also called cell surface-expressed human cMet
Protocol: Whole cell ELISAs were performed using 3T3 cells that over-express human cMet. […] Briefly, 96-well plates were seeded with 10⁵ cells per well. The plates were centrifuged for 5 minutes at 1600 rpm to pellet the cells. The resulting cell layer was fixed with 0.1% (v/v) glutaraldehyde for 12 minutes at 37 C. […] Peptide-displaying phage also were blocked in the above solution for 1 hour at 37 C. 100 μL of blocked phage was then added to each well and the plates were incubated for 1 hour at room temperature. The plates were washed with PBST. cMet-binding peptide-displaying phage were detected using an HRP-conjugated anti-M13 antibody.

cMet-Fc fusion protein [1] = molecular target: T2, cMet-Fc fusion protein (human, UniProt P08581 25-932); test: phage protein ELISA, cMet-Fc vs TRAIL-Fc
T2 construct: extracellular domain; also called soluble cMet-Fc fusion protein; cMet-Fc (R&D Systems); not shown: Fc part, not described
T2 sequence (P08581 25-932): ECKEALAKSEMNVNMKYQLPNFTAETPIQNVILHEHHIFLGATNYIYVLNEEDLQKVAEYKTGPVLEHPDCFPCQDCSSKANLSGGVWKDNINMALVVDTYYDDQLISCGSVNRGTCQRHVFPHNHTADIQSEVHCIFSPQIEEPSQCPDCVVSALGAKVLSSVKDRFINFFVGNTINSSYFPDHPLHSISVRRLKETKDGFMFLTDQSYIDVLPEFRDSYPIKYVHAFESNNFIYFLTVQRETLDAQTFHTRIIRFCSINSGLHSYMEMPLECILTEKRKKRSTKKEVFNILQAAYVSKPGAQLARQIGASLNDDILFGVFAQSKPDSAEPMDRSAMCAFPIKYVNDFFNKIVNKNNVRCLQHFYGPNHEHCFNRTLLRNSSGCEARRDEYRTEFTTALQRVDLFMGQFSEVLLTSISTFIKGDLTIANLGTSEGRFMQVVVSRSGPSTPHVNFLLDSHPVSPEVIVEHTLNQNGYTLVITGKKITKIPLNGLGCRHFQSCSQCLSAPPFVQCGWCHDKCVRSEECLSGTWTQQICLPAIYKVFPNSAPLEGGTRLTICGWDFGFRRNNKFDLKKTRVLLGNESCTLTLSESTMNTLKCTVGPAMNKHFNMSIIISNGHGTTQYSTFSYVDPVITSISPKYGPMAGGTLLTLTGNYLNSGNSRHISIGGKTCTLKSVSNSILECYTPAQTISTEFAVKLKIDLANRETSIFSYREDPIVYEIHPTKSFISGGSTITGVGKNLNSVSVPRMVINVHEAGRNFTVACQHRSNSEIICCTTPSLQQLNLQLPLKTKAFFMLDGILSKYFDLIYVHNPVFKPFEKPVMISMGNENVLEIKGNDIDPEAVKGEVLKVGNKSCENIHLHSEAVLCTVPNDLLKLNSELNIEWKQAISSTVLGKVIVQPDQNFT
Protocol: Protein phage ELISAs using peptide-displaying phage isolates from the various selection campaigns were performed to determine specificity of the peptides for cMet versus an unrelated Fc-fusion protein (TRAIL-Fc). Briefly, 384-well plates were coated overnight at 4 C with 0.5 μg/mL of cMet-Fc fusion protein or TRAIL-Fc fusion protein (background). The plates were blocked for 2 hours 37 C with 3% (w/v) BSA in PBS containing 0.05% (v/v) Tween-20 (PBST). The plates were washed with PBST and 100 μL of peptide-displaying phage were added to each well. The plates were incubated for 2 hours at room temperature and washed with PBST. cMet-binding peptide-displaying phage were detected using an HRP-conjugated anti-M13 antibody.

cMet-Fc fusion protein [2] = molecular target: T2, cMet-Fc fusion protein; test: phage ELISA on cMet-Fc, competitor HGF 100 ng/mL
Protocol: (§1) These assays were conducted using the peptide-displaying phage discovered from the initial selection and screening campaigns using the first generation peptide libraries. Briefly, 96-well plates were coated overnight at 4 C with 0.5 μg/mL of cMet-Fc fusion protein or TRAIL-Fc fusion protein (background). The plates were blocked for 2 hours at 37 C with 3% BSA in PBST. […] This was followed by an addition of 30 μL of peptide-displaying phage overnight culture to each well. The plates were incubated for 2 hours at room temperature, washed with PBST and cMet-binding peptide-displaying phage was detected using an HRP-conjugated anti-M13 antibody.

cMet-Fc fusion protein [3] = molecular target: T2, cMet-Fc fusion protein; test: phage ELISA on cMet-Fc, competitor HGF 500 ng/mL
Protocol: as §1

T1 sequence (P08581 25-1390): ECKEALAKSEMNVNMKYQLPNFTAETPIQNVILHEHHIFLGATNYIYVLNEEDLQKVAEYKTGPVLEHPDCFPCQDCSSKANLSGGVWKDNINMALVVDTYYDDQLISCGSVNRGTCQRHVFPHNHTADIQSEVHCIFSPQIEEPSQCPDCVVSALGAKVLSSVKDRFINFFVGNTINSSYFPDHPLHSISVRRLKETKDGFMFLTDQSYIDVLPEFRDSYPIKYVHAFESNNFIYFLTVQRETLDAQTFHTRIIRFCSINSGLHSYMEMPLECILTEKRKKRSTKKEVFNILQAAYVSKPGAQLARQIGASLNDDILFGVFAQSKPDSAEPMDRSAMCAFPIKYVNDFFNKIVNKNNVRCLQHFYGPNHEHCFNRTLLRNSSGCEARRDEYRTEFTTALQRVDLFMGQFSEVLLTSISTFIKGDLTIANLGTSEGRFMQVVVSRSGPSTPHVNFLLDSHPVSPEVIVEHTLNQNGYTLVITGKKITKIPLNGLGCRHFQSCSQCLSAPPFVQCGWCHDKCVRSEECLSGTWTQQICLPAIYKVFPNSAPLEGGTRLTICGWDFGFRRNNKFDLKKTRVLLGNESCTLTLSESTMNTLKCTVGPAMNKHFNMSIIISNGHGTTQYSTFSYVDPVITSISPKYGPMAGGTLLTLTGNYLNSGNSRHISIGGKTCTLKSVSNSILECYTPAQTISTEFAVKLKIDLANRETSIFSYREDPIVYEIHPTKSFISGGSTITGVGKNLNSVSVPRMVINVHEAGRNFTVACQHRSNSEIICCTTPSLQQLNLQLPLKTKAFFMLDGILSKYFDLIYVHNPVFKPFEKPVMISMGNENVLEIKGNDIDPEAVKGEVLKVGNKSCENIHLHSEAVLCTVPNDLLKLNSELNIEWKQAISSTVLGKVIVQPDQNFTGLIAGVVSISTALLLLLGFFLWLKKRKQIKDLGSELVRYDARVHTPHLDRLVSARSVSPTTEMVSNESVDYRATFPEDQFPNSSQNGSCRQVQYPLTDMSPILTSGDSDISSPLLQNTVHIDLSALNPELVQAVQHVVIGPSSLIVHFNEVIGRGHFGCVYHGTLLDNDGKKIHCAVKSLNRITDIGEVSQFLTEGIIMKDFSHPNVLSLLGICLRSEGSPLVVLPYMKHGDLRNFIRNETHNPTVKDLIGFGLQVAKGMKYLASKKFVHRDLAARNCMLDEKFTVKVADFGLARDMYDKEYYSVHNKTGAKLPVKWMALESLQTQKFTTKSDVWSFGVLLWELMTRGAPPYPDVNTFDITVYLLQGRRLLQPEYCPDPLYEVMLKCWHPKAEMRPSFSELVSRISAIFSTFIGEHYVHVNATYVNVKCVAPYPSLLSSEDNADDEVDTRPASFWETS

GDLLVCKFDDKFWTETCEWADP (on M13 phage) [peptide-displaying phage 549-G05]
fold over background (human cMet on 3T3 cells): 14.5 fold

AGFWDCGWMMQDCHMHGT (on M13 phage) [peptide-displaying phage 470-C02]
fold over background (cMet-Fc fusion protein [1]): 36.9 fold

GSGDPCSPGPSINGHCSVMAP (on M13 phage) [peptide-displaying phage 453-A05]
% of binding in the absence of HGF (cMet-Fc fusion protein [2]): 514%

GSMLGCLFEHQNKYDCYVLAP (on M13 phage) [peptide-displaying phage 443-D04]
fold over background (cMet-Fc fusion protein [1]): 3 fold

AQDPGFSKHSMGHGYPSKMNWG (on M13 phage) [peptide-displaying phage 115-G02]
% of binding in the absence of HGF (cMet-Fc fusion protein [2]): 57%

AGETVCYWLNGWFCVDDGT (on M13 phage) [peptide-displaying phage 274-B07]
% of binding in the absence of HGF (cMet-Fc fusion protein [2]): 343%

AGQFYCSGPPTFQCIMIGT [peptide-displaying phage 550-F11]
% of binding in the absence of HGF (cMet-Fc fusion protein [2]): 58% | fold over background (human cMet on 3T3 cells): 1.23 fold | % of binding in the absence of HGF (cMet-Fc fusion protein [3]): 23% | fold over background (cMet-Fc fusion protein [1]): 1.4 fold

AGETFCSGWPTFECMQWGT (on M13 phage) [peptide-displaying phage 547-H03]
% of binding in the absence of HGF (cMet-Fc fusion protein [3]): 43%

GSHHTCLDGFAGWRCTEVAP (on M13 phage) [peptide-displaying phage 546-E02]
fold over background (cMet-Fc fusion protein [1]): 40.4 fold

AGLPKCSGPPWFSCYYGGT (on M13 phage) [peptide-displaying phage 545-A09]
fold over background (human cMet on 3T3 cells): 1.36 fold

AGYSVCKGYPSFECAFFGT (on M13 phage) [peptide-displaying phage 336-D07]
fold over background (human cMet on 3T3 cells): 14.3 fold

AQFDRYWHFAWMDVSFSSGQSG (on M13 phage) [peptide-displaying phage 92-B05]
fold over background (human cMet on 3T3 cells): 1.23 fold

— US20110311446A1 (DYAX, published 2011)
